Test results taken from IntAct's records for PubMed 29892012.

B1: Tumor suppressor candidate 2 (Homo sapiens), O75896 (parent)
chain: MGASGSKARGLWPFASAAGGGGSEAAGAEQALVRPRGRAVPPFVFTRRGSMFYDEDGDLAHEFYEETIVTKNGQKRAKLRRVHKNLIPQGIVKLDHPRIHVDFPVILYEV
B2: E3 ubiquitin-protein ligase LNX (Homo sapiens), Q8TBB1 (parent)
chain: MNQPESANDPEPLCAVCGQAHSLEENHFYSYPEEVDDDLICHICLQALLDPLDTPCGHTYCTLCLTNFLVEKDFCPMDRKPLVLQHCKKSSILVNKLLNKLLVTCPFREHCTQVLQRCDLEHHFQTSCKGASHYGLTKDRKRRSQDGCPDGCASLTATAPSPEVSAAATISLMTDEPGLDNPAYVSSAEDGQPAISPVDSGRSNRTRARPFERSTIRSRSFKKINRALSVLRRTKSGSAVANHADQGRENSENTTAPEVFPRLYHLIPDGEITSIKINRVDPSESLSIRLVGGSETPLVHIIIQHIYRDGVIARDGRLLPGDIILKVNGMDISNVPHNYAVRLLRQPCQVLWLTVMREQKFRSRNNGQAPDAYRPRDDSFHVILNKSSPEEQLGIKLVRKVDEPGVFIFNVLDGGVAYRHGQLEENDRVLAINGHDLRYGSPESAAHLIQASERRVHLVVSRQVRQRSPDIFQEAGWNSNGSWSPGPGERSNTPKPLHPTITCHEKVVNIQKDPGESLGMTVAGGASHREWDLPIYVISVEPGGVISRDGRIKTGDILLNVDGVELTEVSRSEAVALLKRTSSSIVLKALEVKEYEPQEDCSSPAALDSNHNMAPPSDWSPSWVMWLELPRCLYNCKDIVLRRNTAGSLGFCIVGGYEEYNGNKPFFIKSIVEGTPAYNDGRIRCGDILLAVNGRSTSGMIHACLARLLKELKGRITLTIVSWPGTFL
partner: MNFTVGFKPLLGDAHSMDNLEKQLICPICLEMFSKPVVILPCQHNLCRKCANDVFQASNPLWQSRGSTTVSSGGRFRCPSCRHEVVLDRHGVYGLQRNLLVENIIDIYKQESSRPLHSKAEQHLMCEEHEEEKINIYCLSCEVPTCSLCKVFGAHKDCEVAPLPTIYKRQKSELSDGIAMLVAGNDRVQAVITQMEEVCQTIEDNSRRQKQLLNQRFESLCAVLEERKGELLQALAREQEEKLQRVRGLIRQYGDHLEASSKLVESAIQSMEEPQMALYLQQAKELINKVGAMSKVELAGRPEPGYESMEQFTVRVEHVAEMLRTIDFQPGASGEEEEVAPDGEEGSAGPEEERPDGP
B3: Chorion-specific transcription factor GCMb (Homo sapiens), O75603 (parent)
chain: MPAAAVQEAVGVCSYGMQLSWDINDPQMPQELALFDQFREWPDGYVRFIYSSDEKKAQRHLSGWAMRNTNNHNGHILKKSCLGVVVCTQACTLPDGSRLQLRPAICDKARLKQQKKACPNCHSALELIPCRGHSGYPVTNFWRLDGNAIFFQAKGVHDHPRPESKSETEARRSAIKRQMASFYQPQKKRIRESEAEENQDSSGHFSNIPPLENPEDFDIVTETSFPIPGQPCPSFPKSDVYKATCDLATFQGDKMPPFQKYSSPRIYLPRPPCSYELANPGYTNSSPYPTLYKDSTSIPNDTDWVHLNTLQCNVNSYSSYERSFDFTNKQHGWKPALGKPSLVERTNHGQFQAMATRPYYNPELPCRYLTTPPPGAPALQTVITTTTKVSYQAYQPPAMKYSDSVREVKSLSSCNYAPEDTGMSVYPEPWGPPVTVTRAASPSGPPPMKIAGDCRAIRPTVAIPHEPVSSRTDEAETWDVCLSGLGSAVSYSDRVGPFFTYNNEDF
partner: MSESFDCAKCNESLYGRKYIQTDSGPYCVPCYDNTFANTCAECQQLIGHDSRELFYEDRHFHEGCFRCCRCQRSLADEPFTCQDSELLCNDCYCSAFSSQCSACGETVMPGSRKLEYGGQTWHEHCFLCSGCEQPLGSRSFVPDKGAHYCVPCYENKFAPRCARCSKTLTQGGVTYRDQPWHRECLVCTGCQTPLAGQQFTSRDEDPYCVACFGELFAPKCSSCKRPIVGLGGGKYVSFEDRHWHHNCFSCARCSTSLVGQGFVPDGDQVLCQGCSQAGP
B4: Coiled-coil alpha-helical rod protein 1 (Homo sapiens), Q8TD31 (parent)
chain: MFPPSGSTGLIPPSHFQARPLSTLPRMAPTWLSDIPLVQPPGHQDVSERRLDTQRPQVTMWERDVSSDRQEPGRRGRSWGLEGSQALSQQAEVIVRQLQELRRLEEEVRLLRETSLQQKMRLEAQAMELEALARAEKAGRAEAEGLRAALAGAEVVRKNLEEGSQRELEEVQRLHQEQLSSLTQAHEEALSSLTSKAEGLEKSLSSLETRRAGEAKELAEAQREAELLRKQLSKTQEDLEAQVTLVENLRKYVGEQVPSEVHSQTWELERQKLLETMQHLQEDRDSLHATAELLQVRVQSLTHILALQEEELTRKVQPSDSLEPEFTRKCQSLLNRWREKVFALMVQLKAQELEHSDSVKQLKGQVASLQEKVTSQSQEQAILQRSLQDKAAEVEVERMGAKGLQLELSRAQEARRRWQQQTASAEEQLRLVVNAVSSSQIWLETTMAKVEGAAAQLPSLNNRLSYAVRKVHTIRGLIARKLALAQLRQESCPLPPPVTDVSLELQQLREERNRLDAELQLSARLIQQEVGRAREQGEAERQQLSKVAQQLEQELQQTQESLASLGLQLEVARQGQQESTEEAASLRQELTQQQELYGQALQEKVAEVETRLREQLSDTERRLNEARREHAKAVVSLRQIQRRAAQEKERSQELRRLQEEARKEEGQRLARRLQELERDKNLMLATLQQEGLLSRYKQQRLLTVLPSLLDKKKSVVSSPRPPECSASAPVAAAVPTRESIKGSLSVLLDDLQDLSEAISKEEAVCQGDNLDRCSSSNPQMSS
partner: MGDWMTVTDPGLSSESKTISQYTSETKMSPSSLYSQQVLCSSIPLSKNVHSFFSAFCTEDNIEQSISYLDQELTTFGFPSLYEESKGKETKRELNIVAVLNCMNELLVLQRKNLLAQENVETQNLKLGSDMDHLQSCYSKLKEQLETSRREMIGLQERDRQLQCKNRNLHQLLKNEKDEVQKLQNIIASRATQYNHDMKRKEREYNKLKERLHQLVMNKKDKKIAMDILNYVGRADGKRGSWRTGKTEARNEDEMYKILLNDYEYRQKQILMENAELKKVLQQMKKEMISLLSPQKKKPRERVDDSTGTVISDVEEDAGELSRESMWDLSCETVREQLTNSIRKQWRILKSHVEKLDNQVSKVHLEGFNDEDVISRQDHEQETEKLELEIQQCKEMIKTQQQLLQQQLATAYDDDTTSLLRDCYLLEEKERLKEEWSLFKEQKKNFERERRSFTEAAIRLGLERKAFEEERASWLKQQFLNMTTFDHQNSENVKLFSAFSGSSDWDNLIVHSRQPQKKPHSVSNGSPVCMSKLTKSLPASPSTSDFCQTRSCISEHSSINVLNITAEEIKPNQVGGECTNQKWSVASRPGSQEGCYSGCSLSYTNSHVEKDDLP
B5: Atypical chemokine receptor 2 (Homo sapiens), O00590 (parent)
chain: MAATASPQPLATEDADSENSSFYYYDYLDEVAFMLCRKDAVVSFGKVFLPVFYSLIFVLGLSGNLLLLMVLLRYVPRRRMVEIYLLNLAISNLLFLVTLPFWGISVAWHWVFGSFLCKMVSTLYTINFYSGIFFISCMSLDKYLEIVHAQPYHRLRTRAKSLLLATIVWAVSLAVSIPDMVFVQTHENPKGVWNCHADFGGHGTIWKLFLRFQQNLLGFLLPLLAMIFFYSRIGCVLVRLRPAGQGRALKIAAALVVAFFVLWFPYNLTLFLHTLLDLQVFGNCEVSQHLDYALQVTESIAFLHCCFSPILYAFSSHRFRQYLKAFLAAVLGWHLAPGTAQASLSSCSESSILTAQEEMTGMNDLGERQSENYPNKEDVGNKSA
B6: E3 ubiquitin-protein ligase DZIP3 (Homo sapiens), Q86Y13 (parent)
chain: MDSLPDEFFVRHPAVEDQRKEETENKLEKSSGQLNKQENDIPTDLVPVNLLLEVKKLLNAINTLPKGVVPHIKKFLQEDFSFQTMQREVAANSQNGEEIVPALTLRFLITQLEAALRNIQAGNYTAHQINIGYYLTLLFLYGVALTERGKKEDYTEAENKFLVMKMMIQENEICENFMSLVYFGRGLLRCAQKRYNGGLLEFHKSLQEIGDKNDHWFDIDPTEDEDLPTTFKDLLNNFIKTTESNIMKQTICSYLDCERSCEADILKNTSYKGFFQLMCSKSCCVYFHKICWKKFKNLKYPGENDQSFSGKKCLKEGCTGDMVRMLQCDVPGIVKILFEVVRKDEYITIENLGASYRKLISLKITDTDIRPKISLKFNTKDEMPIFKLDYNYFYHLLHIIIISGTDIVRQIFDEAMPPPLLKKELLIHKNVLESYYNHLWTNHPLGGSWHLLYPPNKELPQSKQFDLCLLLALIKHLNVFPAPKKGWNMEPPSSDISKSADILRLCKYRDILLSEILMNGLTESQFNSIWKKVSDILLRLGMMQEDIDKVKENPIENISLDYHQLSVYLGIPVPEIIQRMLSCYQQGIALQSITGSQRIEIEELQNEEEELSPPLMEYNINVKSHPEIQFAEINKDGTSIPSESSTESLKDLQEVKSKQRKKKKTKNKKNKDSKEDQVPYVVEKEEQLRKEQANPHSVSRLIKDDASDVQEDSAMEDKFYSLDELHILDMIEQGSAGKVTTDYGETEKERLARQRQLYKLHYQCEDFKRQLRTVTFRWQENQMQIKKKDKIIASLNQQVAFGINKVSKLQRQIHAKDNEIKNLKEQLSMKRSQWEMEKHNLESTMKTYVSKLNAETSRALTAEVYFLQCRRDFGLLHLEQTEKECLNQLARVTHMAASNLESLQLKAAVDSWNAIVADVRNKIAFLRTQYNEQINKVKQGFALSTLPPVQLPPPPPSPEILMQQFLGRPLVKESFFRPILTVPQMPAVCPGVVSATGQPRAPLMTGIAWALPAPVGDAVPPSAGLRSDPSIMNWERITDRLKTAFPQQTRKELTDFLRKLKDAYGKSLSELTFDEIVCKISQFIDPKKSQSQGKSVSNVNCVSPSHSPSQPDAAQPPKPAWRPLTSQGPATWEGASNPDEEEEEEEPCVICHENLSPENLSVLPCAHKFHAQCIRPWLMQQGTCPTCRLHVLLPEEFPGHPSRQLPKI
partner: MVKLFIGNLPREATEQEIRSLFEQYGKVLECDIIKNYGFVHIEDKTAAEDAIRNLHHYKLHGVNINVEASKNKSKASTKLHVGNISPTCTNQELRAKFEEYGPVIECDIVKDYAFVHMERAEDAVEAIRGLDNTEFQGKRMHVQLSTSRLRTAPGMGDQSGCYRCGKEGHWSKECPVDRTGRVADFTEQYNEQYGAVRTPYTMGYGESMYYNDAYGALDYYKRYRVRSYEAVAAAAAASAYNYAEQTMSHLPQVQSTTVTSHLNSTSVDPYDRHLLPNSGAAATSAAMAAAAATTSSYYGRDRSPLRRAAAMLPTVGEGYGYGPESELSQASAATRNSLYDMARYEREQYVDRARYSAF
B7: Chorion-specific transcription factor GCMb (Homo sapiens), O75603 (parent)
chain: B3 chain
partner: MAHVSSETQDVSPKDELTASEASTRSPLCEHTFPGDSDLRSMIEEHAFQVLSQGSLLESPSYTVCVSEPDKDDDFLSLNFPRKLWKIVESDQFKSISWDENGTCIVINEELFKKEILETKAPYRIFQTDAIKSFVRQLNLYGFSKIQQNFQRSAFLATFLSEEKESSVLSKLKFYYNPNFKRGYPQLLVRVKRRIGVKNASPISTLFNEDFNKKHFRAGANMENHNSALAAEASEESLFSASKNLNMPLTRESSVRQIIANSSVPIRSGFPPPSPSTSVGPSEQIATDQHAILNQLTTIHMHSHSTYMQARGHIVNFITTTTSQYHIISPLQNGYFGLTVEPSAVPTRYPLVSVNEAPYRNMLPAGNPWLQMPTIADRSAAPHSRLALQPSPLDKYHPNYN

Variants of: B1
Settings: with rbpms_human RBPMS

Row | Variant | effect of a mutation on the interaction
1 | R76Q | with no effect

Variants of: B1
Settings: with mdfi_human MDFI

Row | Variant | effect of a mutation on the interaction
2 | R76Q | disrupting interaction strength

Variants of: B2
Settings: with tri54_human TRIM54, Q9BYV2

Row | Variant | effect of a mutation on the interaction
3 | E295K | disrupting interaction strength

Variants of: B3
Settings: with fhl3_human FHL3, Q13643

Row | Variant | effect of a mutation on the interaction
4 | G349E | with no effect

Variants of: B4
Settings: with adip_human SSX2IP

Row | Variant | effect of a mutation on the interaction
5 | W337R | disrupting interaction strength

Variants of: B5
Settings: with creb3_human CREB3, O43889
Chain of creb3_human CREB3, O43889 (O43889 whole entry): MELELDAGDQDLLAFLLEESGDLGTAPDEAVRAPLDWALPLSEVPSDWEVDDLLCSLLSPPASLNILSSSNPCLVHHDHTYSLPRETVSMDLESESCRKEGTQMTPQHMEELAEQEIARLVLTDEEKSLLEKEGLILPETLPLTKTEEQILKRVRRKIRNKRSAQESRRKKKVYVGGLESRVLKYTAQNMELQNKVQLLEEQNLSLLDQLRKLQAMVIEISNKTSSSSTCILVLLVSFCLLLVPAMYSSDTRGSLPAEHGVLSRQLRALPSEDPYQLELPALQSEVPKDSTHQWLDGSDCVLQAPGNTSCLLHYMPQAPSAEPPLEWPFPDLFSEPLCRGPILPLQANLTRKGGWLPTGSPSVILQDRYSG

Row | Variant | effect of a mutation on the interaction
6 | V42M | with no effect

Variants of: B6
Settings: with rbm4b_human RBM4B

Row | Variant | effect of a mutation on the interaction
7 | M1032R | disrupting interaction strength

Variants of: B7
Settings: with hsfy1_human HSFY1, Q96LI6

Row | Variant | effect of a mutation on the interaction
8 | G349E | with no effect
